According to patent publication CN112574305A (UNIV TSINGHUA RES INST SHENZHEN, dated 2021):

What was measured:
ProBDNF = target: T1, ProBDNF; test: ELISA, OD450
T1 sequence (peptide): CDQKVRPNEENNKDA

mBDNF = target: T2, mBDNF (UniProt P23560 129-247, limits assumed); test: ELISA, mBDNF coated at 2 μg/ml, purified antibody added, OD450
T2 construct: mature; also called 成熟BDNF
T2 sequence (looked up): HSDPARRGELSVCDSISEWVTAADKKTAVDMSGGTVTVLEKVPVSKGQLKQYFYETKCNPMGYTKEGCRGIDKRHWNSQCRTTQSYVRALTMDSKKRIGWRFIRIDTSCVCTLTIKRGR

抗原浓度 (lowest antigen concentration detected) (ProBDNF): 1.95 ng/mL | binding result (mBDNF): no binding
B1: 抗ProBDNF抗体 (antibody, IgG2b, V domains shown)
VH: QVQLQQSGPELVKPGASVTISCKTSAYGFSSSWMNWVKQRPGQGLEWIGRIYPGDGETNYNGKFMGKATLTADKSSNTVYMHLSSLTSVDSAVYFCTRRELVYWGQGTLVTVSA
VL: DIVLTQSPASLAVSLGQRATISCRTSESVDTYGNSFIHWYQQKPGQPPKLLIYRASRLESGIPARFSGSGSRTDFTLTINPVEADDVATYYCQQSYEDPWTFGGGTKLEIK
notes: Mouse hybridoma antibody, made recombinantly in 293 cells; also called 针对前体脑源性神经营养因子的抗体; 实施例2提供的纯化抗体
